In US12458818B2, “Anti-trophoblast cell surface antigen 2 (TROP2) antibodies and antibody drug conjugates comprising same” (CSPC MEGALITH BIOPHARMACEUTICAL CO., LTD., priority 2019, dated 2025):
Several values for one entry are separate records, joined by “and”; a condition that tells them apart may be missing. Identical values can stand only once.

System: xenografted MDA-MB-468 human breast adenocarcinoma tumors
Assay: MDA-MB-468 xenograft efficacy in female nude mice (Example 4)
Type: in vivo, mouse
Description: The anti-tumor activity of DP002-HC4LC5-ADC was evaluated as a single agent in female nude mice bearing xenografted MDA-MB-468 human breast adenocarcinoma tumors.
Each mouse was inoculated with 5×10^6 MDA-MB-468 tumor cells (in 0.1 mL, 1:1 with Matrigel) at the right flank by subcutaneous administration under sterile conditions. When the tumors reached a volume of ˜150 mm^3, mice were randomized into one of 7 treatment groups (6 mice per group), as outlined in Table 12, and treatments began. All doses of DP002-HC4LC5-ADC were administered by intravenous injection via tail vein injection.
Tumor size and animal body weight were measured twice per week. Clinical signs were recorded daily. Tumors were measured using a caliper in two dimensions (i.e., length (a) and width (b)), and tumor volumes were estimated from measurements of the two diameters of the individual tumors as follows: Tumor Volume (mm^3)=(a×b^2)/2.
Average tumor growth curves for each treatment group were plotted with the observation time on the X-axis, and corresponding tumor volume (geometric mean) on the Y-axis. A two-tailed t-test was used to analyze the statistical significance of any differences between the treatment groups and the control group. Tumor Growth Inhibition (TGI) was calculated after each tumor volume measurement according to the formula: % TGI=(TVcn−TVtn)/TVcn×100, where TVtn and TVcn are the mean tumor Volume of treated and control groups, respectively. Body weight change (CBW %) was calculated after each body weight measurement according to the formula: CBW %=(BWn−BW0)/BW0×100, where BWn is the body weight at day n and BW0 is the body weight at day 0 respectively.

[1] = 1 mg/kg IV once on Day 0, n = 6 unless specified
[2] = 2 mg/kg IV Day 0 + 1 mg/kg IV Days 7, 14
[3] = 2 mg/kg IV Day 0 + 1 mg/kg IV Days 7, 14, n = 6 unless specified
[4] = 2 mg/kg IV once on Day 0, n = 6 unless specified
[5] = 4 mg/kg IV once on Day 0, n = 6 unless specified
[6] = 4 mg/kg IV once on Day 0, outlier animal excluded

B1: DP002-HC4LC5-ADC: anti-TROP2-MMAE antibody drug conjugate (DAR ~1.6-2.3) of antibody with HC4 and LC5 (SEQ ID NO: 62) (conjugate)
VH: EVQLVQSGAEVKKPGESLKISCKGSGYTFTDYSINWVRQMPGKGLEWMGVISTYYGDASYNQKFKGQVTISADKSISTAYLQWSSLKASDTAMYYCARYGDGYNQFDYWGQGTLVTVSS
light: DIQMTQSPSSLSASVGDRVTITCRVSESVDSYGNNFMHWYQQKPGKAPKLLIYRASNLESGVPSRFSGSGSGTDFTFTISSLQPEDIATYYCQQSYEDPYTFGGGTKLEIKRTVAAPSVFIFPPSDEQLKSGTASVVCLLNNFYPREAKVQWKVDNALQSGNSQESVTEQDSKDSTYSLSSTLTLSKADYEKHKVYACEVTHQGLSSPVTKSFNRGEC
modifications: MMAE conjugate
- Number of mice demonstrating full tumor regression at Week 12 following first dose (1 mg/kg IV Days 0, 7, 14, 21, n = 6): 2
- % TGI Day 70 (1 mg/kg IV once on Day 0): 62.16%
- Tumor Volume (mm^3, Mean ± SEM) Day 70 (1 mg/kg IV once on Day 0): 515.77 mm^3 and 515.77 ± 127.38*** mm^3
- Tumor Weight (g, Mean ± SEM) Day 84 (1 mg/kg IV once on Day 0): 0.658 ± 0.165 g
- Tumor Weight (g, Mean ± SEM) Day 77 (1 mg/kg IV once on Day 0, animals euthanized Day 77): 0.972 ± 0.165 g
- Number of mice demonstrating full tumor regression at Week 4 following first dose [1]: 0
- Number of mice demonstrating full tumor regression at Week 5 following first dose [1]: 0
- Number of mice demonstrating full tumor regression at Week 6 following first dose [1]: 0
- Number of mice demonstrating full tumor regression at Week 7 following first dose [1]: 0
- Number of mice demonstrating full tumor regression at Week 8 following first dose [1]: 0
- Number of mice demonstrating full tumor regression at Week 9 following first dose [1]: 0
- Number of mice demonstrating full tumor regression at Week 10 following first dose [1]: 0
- Number of mice demonstrating full tumor regression at Week 11 following first dose [1]: 0
- Number of mice demonstrating full tumor regression at Week 12 following first dose [1]: 0 (n = 4)
- % TGI Day 70 [2]: 87.61%
- % of mice with tumor regression at the end of the study [2]: 100%
- Tumor Volume (mm^3, Mean ± SEM) Day 70 [2]: 168.94 mm^3 and 168.94 ± 168.94*** mm^3
- Tumor Weight (g, Mean ± SEM) Day 84 [2]: 0.000 ± 0.000 g
- Tumor Weight (g, Mean ± SEM) Day 77 (2 mg/kg IV Day 0 + 1 mg/kg IV Days 7, 14, animal euthanized Day 77): 0.749 g
- Number of mice demonstrating full tumor regression at Week 4 following first dose [3]: 5
- Number of mice demonstrating full tumor regression at Week 5 following first dose [3]: 5
- Number of mice demonstrating full tumor regression at Week 6 following first dose [3]: 5
- Number of mice demonstrating full tumor regression at Week 7 following first dose [3]: 5
- Number of mice demonstrating full tumor regression at Week 8 following first dose [3]: 5
- Number of mice demonstrating full tumor regression at Week 9 following first dose [3]: 5
- Number of mice demonstrating full tumor regression at Week 10 following first dose [3]: 5
- Number of mice demonstrating full tumor regression at Week 11 following first dose [3]: 5/6 and 5
- Number of mice demonstrating full tumor regression at Week 12 following first dose [3]: 5 (n = 5)
- % TGI Day 70 (2 mg/kg IV once on Day 0): 89.74%
- % of mice with tumor regression at the end of the study (2 mg/kg IV once on Day 0): 20%
- Tumor Volume (mm^3, Mean ± SEM) Day 70 (2 mg/kg IV once on Day 0): 139.85 mm^3 and 139.85 ± 99.80*** mm^3
- Tumor Weight (g, Mean ± SEM) Day 84 (2 mg/kg IV once on Day 0): 0.089 ± 0.048 g
- Tumor Weight (g, Mean ± SEM) Day 77 (2 mg/kg IV once on Day 0, animal euthanized Day 77): 1.004 g
- Number of mice demonstrating full tumor regression at Week 4 following first dose [4]: 2
- Number of mice demonstrating full tumor regression at Week 5 following first dose [4]: 2
- Number of mice demonstrating full tumor regression at Week 6 following first dose [4]: 2
- Number of mice demonstrating full tumor regression at Week 7 following first dose [4]: 2
- Number of mice demonstrating full tumor regression at Week 8 following first dose [4]: 2
- Number of mice demonstrating full tumor regression at Week 9 following first dose [4]: 2
- Number of mice demonstrating full tumor regression at Week 10 following first dose [4]: 2
- Number of mice demonstrating full tumor regression at Week 11 following first dose [4]: 2/6 and 2
- Number of mice demonstrating full tumor regression at Week 12 following first dose [4]: 1 (n = 5)
- % of mice with tumor regression at the end of the study (4 mg/kg IV as a single dose on Day 0): 66%
- % TGI Day 70 (4 mg/kg IV once on Day 0): 78.49%
- Tumor Volume (mm^3, Mean ± SEM) Day 70 (4 mg/kg IV once on Day 0): 293.26 mm^3 and 293.26 ± 288.40** mm^3
- Tumor Weight (g, Mean ± SEM) Day 84 (4 mg/kg IV once on Day 0): 0.346 ± 0.341 g
- Number of mice demonstrating full tumor regression at Week 4 following first dose [5]: 4
- Number of mice demonstrating full tumor regression at Week 5 following first dose [5]: 4
- Number of mice demonstrating full tumor regression at Week 6 following first dose [5]: 4
- Number of mice demonstrating full tumor regression at Week 7 following first dose [5]: 4
- Number of mice demonstrating full tumor regression at Week 8 following first dose [5]: 4
- Number of mice demonstrating full tumor regression at Week 9 following first dose [5]: 4
- Number of mice demonstrating full tumor regression at Week 10 following first dose [5]: 4
- Number of mice demonstrating full tumor regression at Week 11 following first dose [5]: 4/6 and 4
- Number of mice demonstrating full tumor regression at Week 12 following first dose [5]: 4
- TGI on Day 70, excluding the outlier [6]: 99.64%
- average tumor size on Day 70, excluding the outlier [6]: 4.89 mm^3
